Substitutions are numbered along the chain they refer to.
B1: 101F7 (antibody, human IgG2, lambda, V domains shown)
VH: QVQLVQSGAEVKKPGASVKVSCKASGYTFSSYGISWVRQAPGQGLEWMGWISAYNGNTNYAQKFQGRVTMTTDTSTSTAYMELRSLRSDDTAVYYCAREVRLAARPDHYYGMDVWGQGTTVTVSS
VL: QSVLTQPPSVSAAPGQKVTISCSGSSSNIGINYVSWYQLLPGTAPKLLIYDNNKRPLGIPDRFSGSKSGTSATLGITGLQTGDETDYYCGTWDSSLSAWVFGGGTKLTVLG
notes: Fully human XenoMouse antibody; also called L1/H1; VL1/VH1
B2: 103B7 (antibody, human IgG2, lambda, V domains shown)
VH: B1 VH
VL: B1 VL with A72V, T85A, Y88F, S95N
notes: Fully human XenoMouse antibody; also called L2/H2; VL2/VH1
B3: 131D12 (antibody, human IgG2, lambda, V domains shown)
VH: QGQLVESGGGVVQPGRSLRLSCAASGFTFSSYGMHWVRQAPGKGLEWVAVIWHDGSNKYYADSVKGRFTISRDNSKNTLYLQMNSLRAEDTAVYYCARVVPDNWNQDYYGMDVWGQGTTVTVSS
VL: SYELTQPPSVSVSPGQTASITCSGDKLGDKYACWFQQKPGQSPVLVIYQDSKRPFGIPDRFSGSKSGNTATLTISGTQAMEEADYYCQAWDSSTAVFGGGTKLTVLG
notes: Fully human XenoMouse antibody; also called L3/H3; VL3/VH2
B4: 27B2 (antibody, human IgG2, lambda, V domains shown)
VH: QVQLVESGGGVVQPGRSLRLSCAASGFTFSSYGMHWVRQAPGKGLEWVAAIWYDGSNKYYAESVKGRFTISRDNSKYTLYLQVNSLRAEDTAVYYCARRGGLAARPGGLDVWGQGTTVTVAS
VL: SYELTQPPSVSVSPGQTISISCSGDKLGDKNACWYQQKPGQSPGLVIYQDSKRPLGIPARFSGSNSGNTATLTISGTQAMDEADYYCQAWDISTVVFGGGTKLTVLG
notes: Fully human XenoMouse antibody; Tested as hybridoma supernatant, the VH ends '...TTVTV' without the final 'SS'; also called 27B2.6; L4/H4

Tests used:
[1] = target: T1, cynomolgus PCSK9 (cynomolgus monkey, UniProt A8T662 31-692 (Macaca nemestrina entry), limits assumed); assay: solution equilibrium binding assay on BIAcore, pH 5.5
T1 construct: also called cyPCSK9; cynomolgus monkey PCSK9
T1 sequence (A8T662 31-692 K611R limits assumed): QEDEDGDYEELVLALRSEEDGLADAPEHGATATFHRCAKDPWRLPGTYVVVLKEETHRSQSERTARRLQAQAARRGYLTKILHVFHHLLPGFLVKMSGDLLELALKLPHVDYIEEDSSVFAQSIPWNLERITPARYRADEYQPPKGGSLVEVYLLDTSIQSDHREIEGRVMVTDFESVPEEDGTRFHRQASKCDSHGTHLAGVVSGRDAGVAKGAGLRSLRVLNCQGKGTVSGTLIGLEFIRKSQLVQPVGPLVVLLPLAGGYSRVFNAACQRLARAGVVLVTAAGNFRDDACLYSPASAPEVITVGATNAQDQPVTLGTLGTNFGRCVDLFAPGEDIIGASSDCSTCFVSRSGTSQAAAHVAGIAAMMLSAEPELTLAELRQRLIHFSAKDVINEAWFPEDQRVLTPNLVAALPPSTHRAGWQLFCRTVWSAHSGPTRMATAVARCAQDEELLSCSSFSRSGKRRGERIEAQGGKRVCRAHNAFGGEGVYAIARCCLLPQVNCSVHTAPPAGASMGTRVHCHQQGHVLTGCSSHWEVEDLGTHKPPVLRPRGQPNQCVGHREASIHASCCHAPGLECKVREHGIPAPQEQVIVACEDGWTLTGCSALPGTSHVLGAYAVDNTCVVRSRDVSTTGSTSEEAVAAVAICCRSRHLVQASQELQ
Method: (§1) Binding of anti-PCSK9 antibodies to human and cynomolgus monkey PCSK9 was measured by solution equilibrium binding assay on BIAcore. Antibody was immobilized on the second flow cell of a CM5 chip using amine coupling (reagents provided by GE Healthcare, Piscataway, N.J.) with an approximate density of 6000 RU. The first flow cell was used as a background control. For assay at pH 7.4, 0.1 nM or 1.0 nM of PCSK9 were mixed with serial dilutions of antibody (ranging from 0.003 nM to 50 nM) in PBS plus 0.1 mg/mL BSA, 0.005% P20 and incubated at room temperature for 4 hours. For assay at pH 5.5, 0.1 nM or 1.0 nM of PCSK9 were mixed with serial dilutions of antibody (ranging from 0.003 nM to 50 nM) in 10 mM Sodium Citrate, pH 5.5, plus 150 mM NaCl, 0.1 mg/mL BSA, 0.005% P20 and incubated at room temperature for 4 hours. Binding of free PCSK9 in the mixed solutions was measured by injecting over the antibody coated chip surface. One hundred percent PCSK9 binding signal on the antibody surface was determined in the absence of antibody in the solution. A decreased PCSK9 binding response with increasing concentrations of antibody in solution indicated PCSK9 was binding to the antibody, preventing PCSK9 from binding to the immobilized antibody surface. Plotting the PCSK9 binding signal versus antibody concentration, the KD was obtained from nonlinear regression of the competition curves using an n-curve one-site homogeneous binding model provided in the KinExA Pro software.

[2] = target: T2, human proprotein convertase subtilisin kexin type 9 (self-cleaved, mature, secreted PCSK9) (human, UniProt Q8NBP7 31-692); assay: as above
T2 construct: Self-cleavage means the pro-domain and the catalytic/C-terminal part are separate, associated polypeptides; also called huPCSK9; wild-type PCSK9
T2 sequence (Q8NBP7 other isoform, or with tags, fused parts or gaps): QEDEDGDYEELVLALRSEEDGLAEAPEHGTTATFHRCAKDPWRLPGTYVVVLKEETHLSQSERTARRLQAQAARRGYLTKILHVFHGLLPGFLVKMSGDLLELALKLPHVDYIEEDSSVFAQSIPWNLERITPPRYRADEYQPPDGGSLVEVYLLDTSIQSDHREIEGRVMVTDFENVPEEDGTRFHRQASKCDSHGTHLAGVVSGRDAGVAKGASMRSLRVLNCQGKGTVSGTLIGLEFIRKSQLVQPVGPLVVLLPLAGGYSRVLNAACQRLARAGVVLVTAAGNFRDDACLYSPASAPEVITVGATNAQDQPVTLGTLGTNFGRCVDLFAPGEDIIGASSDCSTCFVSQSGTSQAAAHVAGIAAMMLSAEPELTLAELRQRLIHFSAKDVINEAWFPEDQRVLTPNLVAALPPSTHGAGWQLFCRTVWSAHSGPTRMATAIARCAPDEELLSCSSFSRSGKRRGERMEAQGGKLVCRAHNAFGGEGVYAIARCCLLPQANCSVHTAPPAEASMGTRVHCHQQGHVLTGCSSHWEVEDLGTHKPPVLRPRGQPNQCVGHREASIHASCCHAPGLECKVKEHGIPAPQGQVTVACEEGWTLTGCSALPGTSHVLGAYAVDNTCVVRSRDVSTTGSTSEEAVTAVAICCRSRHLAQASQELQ
Method: as §1

[3] = target: T1, cynomolgus PCSK9; assay: solution equilibrium binding assay on BIAcore, pH 7.4
Method: as §1

[4] = target: T2, human proprotein convertase subtilisin …; assay: as above
Method: as §1

[5] = target: T3, human D374Y PCSK9 mutant (human, UniProt Q8NBP7 31-692, limits assumed); assay: receptor-ligand blocking ELISA: supernatant pre-incubated with biotinylated D374Y PCSK9, binding to captured LDLR
T3 construct: It was biotinylated in the assay; also called biotinylated human D374Y PCSK9
T3 sequence (Q8NBP7 other isoform, or with tags, fused parts or gaps D374Y D374Y limits assumed): as the sequence (Q8NBP7 other isoform, or with tags, fused parts or gaps) above, with D344Y counted along it
Method: The plates were coated with goat anti-LDLR (R&D Cat #AF2148) at 2 μg/ml in 1λPBS/0.05% Azide at a volume of 40 μl/well. The plates were incubated at 4° C. overnight. The plates were then washed using a Titertek plate washer (Titertek, Huntsville, Ala.). A 3-cycle wash was performed. The plates were blocked with 90 μl of 1λ PBS/1% milk and incubated approximately 30 minutes at room temperature. The plates were then washed using the Titertek plate washer. A 3-cycle wash was performed. […] The plates were then incubated for 1 hour and 10 minutes at room temperature. […] The plates were then pre-incubated for about 1 hour and 30 minutes at room temperature. Next, the plates were washed using the Titertek plate washer operated using a 3-cycle wash. 50 μl/well of the pre-incubated mixture was transferred onto the LDLR coated ELISA plates and incubated for 1 hour at room temperature. To detect LDLR-bound b-PCSK9, 40 μl/well streptavidin HRP at 500 ng/ml in assay diluent was added to the plates. The plates were incubated for 1 hour at room temperature. The plates were again washed using a Titertek plate washer. A 3-cycle wash was performed. Finally, 40 μl/well of One-step TMB (Neogen, Lexington, Ky.) was added to the plate and was quenched with 40 μl/well of 1N hydrochloric acid after 30 minutes at room temperature. OD's were read immediately at 450 nm using a Titertek plate reader.

[6] = target: T2, human proprotein convertase subtilisin …; assay: competition ELISA, supernatant pre-incubated with b-PCSK9; competitor 26H5 coated on plate
Method: (§2) Hybridoma supernatants were then assayed for direct binding competition. […] The next day each hybridoma supernatant was preincubated with 100 ng/ml b-PCSK9 at a 1:5 final dilution. These samples were then incubated for 2 hours at RT. The precoated antibody capture plates were then washed and the pre-incubated samples of hybridoma Antibody supernatants and B-PCSK9 were added to the plates and incubated for 1 hour at room temperature. Detection of bound b-PCSK9 was done with streptavidin HRP (Thermo P21126) at 500 ng/ml in 1×PBS/1% non fat skim milk. Incubated for 1 hour then added chromogenic substrate TMB, 3,3′,5,5′-tetramethylbenzidine, 40 ul/well incubated anywhere from 15 minutes to 60 minutes depending on OD then stopped with one molar hydrochloric acid. Optical density at 450 nm read on Multiskan Ascent reader. A % Inhibition was then calculated by comparing the amount of bound b-PCSK9 after preincubation with anti-PCSK9 hybridoma sups versus negative control wells using irrelevant hybridoma supernatants. % Inhibition=1−(OD of Ab supernatant/B-PCSK9/OD of Neg. control supernatant/B-PCSK9).

[7] = target: T2, human proprotein convertase subtilisin …; assay: competition ELISA, supernatant pre-incubated with b-PCSK9; competitor 31H4 coated on plate
Method: as §2

[8] = target: T2, human proprotein convertase subtilisin …; assay: ELISA, hybridoma supernatant on neutravidin-captured biotinylated PCSK9
Method: A primary screen for antibodies which bind to wild-type PCSK9 was performed. The primary screen was performed on two harvests. The primary screen comprised an ELISA assay and was performed using the following protocol:
The plates were coated with neutravadin at a concentration of 4 μg/ml in 1×PBS/0.05% Azide, at a volume of 40 μl/well. The plates were incubated at 4° C. overnight. The plates were then washed using a Titertek plate washer (Titertek, Huntsville, Ala.). A 3-cycle wash was performed. The plates were blocked with 90 μl of 1×PBS/1% milk and incubated approximately 30 minutes at room temperature. The plates were then washed. Again, a 3-cycle wash was performed. The capture sample was biotinylated-PCSK9, and was added at 0.9 μg/ml in 1×PBS/1% milk/10 mM Ca²⁺ at a volume of 40 μl/well. The plates were then incubated for 1 hour at room temperature. Next, the plates were washed using the Titertek plate washer operated using a 3-cycle wash. 10 μl of supernatant was transferred into 40 μl of 1×PBS/1% milk/10 mM Ca²⁺ and incubated 1.5 hours at room temperature. Again the plates were washed using the Titertek plate washer operated using a 3-cycle wash. 40 μl/well of Goat anti-Human IgG Fc HRP at a concentration of 100 ng/ml (1:4000) in 1λ PBS/1% milk/10 mM Ca²⁺ was added to the plate and was incubated 1 hour at room temperature. The plates were washed once again, using a 3-cycle wash. Finally, 40 μl/well of One-step TMB (Neogen, Lexington, Ky.) was added to the plate and quenching with 40 μl/well of 1N hydrochloric acid was performed after 30 minutes at room temperature. OD's were read immediately at 450 nm using a Titertek plate reader. Positive binding was determined as 3 times the average of signal of the negative control which was hybridoma supernatant.

Binder | Kd [1] [nM] | Kd [2] [nM] | Kd [3] [nM] | Kd [4] [nM] | % R-L Inhibition [5] [%] | % inhibition of 26H5 Binding [6] [%] | % inhibition of 31H4 Binding [7] [%] | Early primary screen OD [8] | Late primary screen OD [8]
B1 | 0.008 | 0.016 | 0.008 | 0.006 | 94 | 92 | 82 | 3.45 OD (450 nm) | 3.91 OD (450 nm)
B2 | 0.022 | 0.018 | 0.011 | 0.007 | 93 | 90 | 79 | 4.03 OD (450 nm) | 3.46 OD (450 nm)
B3 | 3.1 | 0.12 | 1.5 | 0.067 | 92 | 90 | 89 | 3.3 OD (450 nm) | 3.56 OD (450 nm)
B4 | – | – | – | – | 93 | – | – | 4.9 OD (450 nm) | 4.2 OD (450 nm)
